Experimental data taken from PMC6168863.

Biological target: SsaL-3Flag (Salmonella enterica serovar Typhimurium (strain 12023))
Experiment: co-IP; Bacteria grown 6 h in MgM-MES at pH 5.0; lysate in PBS, 1 mM PMSF, 0.5% Triton X-100; SsaL-3Flag precipitated with anti-Flag M2 affinity agarose for 3 h at 4°C and eluted with 3Flag peptide; SsaV detected with anti-His antibody. Strains: wt background, ssaV^V632D, ΔssaP (with or without pssaP), and ΔssaU expressing SsaU^N262A

Chain of SsaV-6×His (P74856 whole entry): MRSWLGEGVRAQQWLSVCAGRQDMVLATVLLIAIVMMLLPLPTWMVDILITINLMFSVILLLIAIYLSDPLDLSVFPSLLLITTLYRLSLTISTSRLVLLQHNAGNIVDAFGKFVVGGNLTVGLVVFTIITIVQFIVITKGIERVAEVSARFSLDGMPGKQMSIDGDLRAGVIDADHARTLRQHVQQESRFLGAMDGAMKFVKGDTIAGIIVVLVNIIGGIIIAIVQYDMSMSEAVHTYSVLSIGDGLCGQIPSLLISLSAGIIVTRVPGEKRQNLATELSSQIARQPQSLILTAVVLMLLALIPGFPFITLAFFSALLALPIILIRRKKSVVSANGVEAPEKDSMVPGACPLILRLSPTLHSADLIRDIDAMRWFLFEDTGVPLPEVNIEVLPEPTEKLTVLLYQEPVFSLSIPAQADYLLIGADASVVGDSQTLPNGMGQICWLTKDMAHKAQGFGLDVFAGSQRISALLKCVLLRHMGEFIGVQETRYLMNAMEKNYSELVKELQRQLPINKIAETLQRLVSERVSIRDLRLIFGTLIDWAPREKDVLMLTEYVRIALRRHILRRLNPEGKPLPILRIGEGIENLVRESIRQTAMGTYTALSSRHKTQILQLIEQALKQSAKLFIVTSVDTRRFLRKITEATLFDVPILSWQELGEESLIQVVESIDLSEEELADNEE

SsaV-6×His (from UniProt P74856 1-681) (natural protein)
percent decrease of SsaV-6×His co-immunoprecipitated with SsaL-3Flag in the absence of SsaP (ΔssaP): 43.6%
percent decrease of SsaV-6×His co-immunoprecipitated with SsaL-3Flag in the absence of normally cleaved SsaU (ΔssaU expressing SsaU^N262A): 46.2%
